From paper PMC4353811

Columns and labels:
[1] = biological target: T1, Psy3-Csm2-I40A/I83A (Saccharomyces cerevisiae, UniProt Q12318;P40465 1-242;1-213, I40A;I83A;Csm2:); test: EMSA
T1 sequence 1: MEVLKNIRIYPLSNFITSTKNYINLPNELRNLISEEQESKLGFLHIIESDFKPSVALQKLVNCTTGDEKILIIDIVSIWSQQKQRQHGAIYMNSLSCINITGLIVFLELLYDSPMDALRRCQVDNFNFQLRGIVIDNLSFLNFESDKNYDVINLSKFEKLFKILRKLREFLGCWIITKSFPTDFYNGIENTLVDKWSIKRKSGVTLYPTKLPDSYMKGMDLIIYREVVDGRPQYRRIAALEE
T1 sequence 2: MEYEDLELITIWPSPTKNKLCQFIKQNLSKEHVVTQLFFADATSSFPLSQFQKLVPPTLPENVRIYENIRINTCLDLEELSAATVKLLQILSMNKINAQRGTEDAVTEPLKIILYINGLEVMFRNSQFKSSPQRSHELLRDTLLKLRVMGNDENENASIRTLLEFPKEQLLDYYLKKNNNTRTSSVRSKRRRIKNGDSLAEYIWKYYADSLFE

[2] = biological target: T2, Psy3-Csm2-I83A/L87A (Saccharomyces cerevisiae, UniProt Q12318;P40465 1-242;1-213, I83A;L87A;Csm2:); test: EMSA
T2 sequence 1: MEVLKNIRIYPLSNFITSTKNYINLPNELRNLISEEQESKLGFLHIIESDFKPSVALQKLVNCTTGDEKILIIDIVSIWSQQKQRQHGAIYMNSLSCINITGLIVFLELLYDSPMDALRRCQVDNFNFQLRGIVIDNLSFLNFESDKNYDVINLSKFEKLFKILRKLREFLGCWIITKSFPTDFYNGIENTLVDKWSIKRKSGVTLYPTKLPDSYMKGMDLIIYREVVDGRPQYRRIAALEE
T2 sequence 2: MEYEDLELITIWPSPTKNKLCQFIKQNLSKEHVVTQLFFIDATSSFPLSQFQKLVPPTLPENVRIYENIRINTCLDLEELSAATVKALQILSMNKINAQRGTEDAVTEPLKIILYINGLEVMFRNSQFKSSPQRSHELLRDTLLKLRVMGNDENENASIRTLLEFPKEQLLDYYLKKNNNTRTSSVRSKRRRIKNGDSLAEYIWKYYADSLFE

[3] = biological target: T3, Psy3-Csm2 (Saccharomyces cerevisiae, UniProt Q12318;P40465 1-242;1-213); test: EMSA
T3 sequence 1: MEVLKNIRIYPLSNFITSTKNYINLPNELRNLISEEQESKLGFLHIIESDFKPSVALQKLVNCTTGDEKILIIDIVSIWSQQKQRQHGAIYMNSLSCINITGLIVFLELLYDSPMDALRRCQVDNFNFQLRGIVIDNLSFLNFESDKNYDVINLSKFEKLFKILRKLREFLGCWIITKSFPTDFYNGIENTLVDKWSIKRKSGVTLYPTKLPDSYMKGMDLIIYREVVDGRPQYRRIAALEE
T3 sequence 2: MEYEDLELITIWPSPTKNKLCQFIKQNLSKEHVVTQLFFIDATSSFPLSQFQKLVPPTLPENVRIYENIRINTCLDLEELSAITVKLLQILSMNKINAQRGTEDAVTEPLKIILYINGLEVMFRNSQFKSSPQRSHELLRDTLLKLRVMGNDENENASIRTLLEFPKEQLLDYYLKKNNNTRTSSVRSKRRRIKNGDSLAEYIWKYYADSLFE

[4] = biological target: Rad51;Psy3-Csm2 (Saccharomyces cerevisiae;Saccharomyces …, UniProt P25454;Q12318;P40465 1-400;1-242;1-213, |); test: EMSA and supershift
Chain of Rad51;Psy3-Csm2 (P25454 whole entry, one chain of several): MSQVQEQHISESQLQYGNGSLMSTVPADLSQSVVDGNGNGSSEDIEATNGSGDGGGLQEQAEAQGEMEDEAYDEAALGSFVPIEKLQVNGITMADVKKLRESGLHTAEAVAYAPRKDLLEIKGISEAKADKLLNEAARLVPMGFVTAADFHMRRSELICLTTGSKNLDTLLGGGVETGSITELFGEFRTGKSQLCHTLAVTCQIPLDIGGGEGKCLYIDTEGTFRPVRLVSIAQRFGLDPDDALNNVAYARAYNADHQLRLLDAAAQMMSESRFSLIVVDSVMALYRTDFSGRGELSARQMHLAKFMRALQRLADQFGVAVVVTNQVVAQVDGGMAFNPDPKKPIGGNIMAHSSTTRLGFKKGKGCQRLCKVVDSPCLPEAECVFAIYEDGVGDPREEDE

Measured: binding result

B1: 60-mer oligo-ssDNA (ssDNA)
DNA: TGGGTGAACCTGCAGGTGGGCAAAGATGTCCTAGCAATCCATTGTCTATGACGTCAAGCT
binds: all assays above
